The values below come from patent US11274129B2, “Methods for protein tyrosine phosphorylation profiling with variant SH2 domains” (priority 2016, dated 2022).

This test concerns pTyr-including peptides from pervanadate-treated Jurkat cells. Nature of the test: Enrichment of pTyr-including peptides from pervanadate-treated Jurkat cells by affinity reagents, 1D LC-MS/MS. Also noted: species or system human. To be noted: 3 mg Jurkat peptides. The protocol: Experiments were conducted to determine the relative efficacy of the variant Src SH2 domains and commonly used anti-pTyr antibodies as affinity reagents for pTyr-including peptides from biological samples. His6/GST-tagged TrM Src SH2 domain (SEQ ID NO: 11) and His6-tagged QuadM Src SH2 domain (SEQ ID NO: 13), as well as anti-pTyr antibodies, were prepared in functionally-equivalent molar amounts by using half the molar amount of the antibodies relative to the SH2 domain variants given that each antibody molecule has two binding sites for its antigen.
The first experiment tested the relative ability of the following affinity reagents to extract pTyr-including peptides from a peptide mixture prepared from Jurkat cells: a His6/GST-tagged TrM Src SH2 (SEQ ID NO: 11), a His6-tagged QuadM Src SH2 (SEQ ID NO: 13), the anti-pTyr antibody 4G10 (agarose conjugate, obtained from Millipore), and a mixture of commercially-available anti-pTyr antibodies. […] The two SH2 affinity reagents were also tested at a 30× amount; the antibodies were not tested at a 30× amount due to the prohibitive cost of doing so. The purified SH2 affinity reagents were prepared as described in Example 1. The antibody mixture contained 4G10 (as above), PY99 (obtained from Santa Cruz Biotechnology), and P-Tyr-100 (slurry of PTMScan® Phospho-Tyrosine Mouse mAb, obtained from Cell Signaling Technology). Since the concentration of P-Tyr-100 is unknown, the amount was used as recommended by the vendor (i.e., 4 μL for 1 mg peptide digest).
FIG. 2A presents a schematic of the experimental design. Each amount of His6-tagged SH2 domain variant or antibody was subjected to a binding experiment with 3 mg of a peptide mixture prepared from pervanadate-treated Jurkat cells.
Jurkat cells (obtained from ATCC) were cultured in a humidified atmosphere of 5% CO2 at 37° C. in Roswell Park Memorial Institute 1640 medium (RPMI-1640) supplemented with 10% bovine serum and 100 U/mL of streptomycin and penicillin.
The cells were again collected by centrifugation. The cell pellets were gently homogenized in an ice-cold lysis buffer containing 8 M urea, 50 mM tris(hydroxymethyl)aminomethane (Tris)-HCl (pH 7.4), 2% protease inhibitor cocktail (v/v, obtained from Sigma-Aldrich), 1% Triton X-100 (v/v), 1 mM NaF, and 1 mM Na3VO4, followed by sonication at 400 W for 120 s. After centrifugation at 25,000 g for 1 h, proteins were precipitated in ice-cold acetone/ethanol/acetic acid (50/50/0.1, V/V/V) solution. Subsequently, the proteins were diluted in reducing buffer containing 100 mM triethylammonium bicarbonate (TEAB) buffer (pH 8.2) and 8 M urea, and the final protein concentration was determined by Bradford assay. The protein suspension was reduced in 10 mM dithiothreitol (DTT) at 37° C. for 2 h, and it was then alkylated in 20 mM iodoacetamide (IAA) in darkness at room temperature for another 30 min. Trypsin digestion was performed at 37° C. overnight with an enzyme-to-protein ratio of 1/25 (w/w). The resulting peptide mixture was stored at −80° C. for further analysis.
Desalted Jurkat peptides (30 mg) were dissolved in ice-cold immunoaffinity purification (IAP) buffer and then split into 10 aliquots with 3 mg of Jurkat peptides each. Binding experiments were performed with the amounts of antibody (1×, 5×) or SH2 domain variant (1×, 5×, 30×) set out in Table 1 and FIG. 2A.
For antibody-based enrichment, 4G10 or the antibody mixture was incubated with the sample at 4° C. overnight while rotating. The beads were washed three times with ice-cold IAP buffer and twice with ice-cold water. To release the bound peptides, the beads were eluted twice with 200 μL 0.15% trifluoroacetic acid (TFA) for 15 min at room temperature.
For SH2-based enrichment, Ni-NTA beads containing the purified SH2 proteins were washed extensively in twenty column volumes of PBS buffer (pH 7.0) containing 20 mM imidazole. […] The washed beads were incubated with the peptide mixture at 4° C. overnight while rotating. […]

B1: Triple mutant: TrM human Src SH2 domain variant with Thr183Val, Cys188Ala and Lys206Leu; His6/GST-tagged form SEQ ID NO: 11 (protein)
chain: DSIQAEEWYFGKITRRESERLLLNAENPRGTFLVRESETVKGAYALSVSDFDNAKGLNVKHYLIRKLDSGGFYITSRTQFNSLQQLVAYYSKHADGLCHRLTTVCPTSK
modifications: SH2 protein domain; TrM human Src SH2 domain
For B1, the “Number of pTyr sites identified” value worked out at 578 (0.375 nmol (1x) pTyr-binding sites), 1060 (1.875 nmol (5x) pTyr-binding sites) and 1165 (11.25 nmol (30x) pTyr-binding sites).
